Experiment [1] deals with T1, extracellular portion of MET (EC-MET) (human, UniProt P08581).
T1 construct: MET, human, 908-amino acid extracellular portion; tags printed as HHHHHH and …; EC-MET was biotinylated with BirA for cell sorting only; also called recombinant ectodomain of MET; source: Expi293F, transient transfection, purified from supernatant (Ni-NTA); not shown: His6, C-terminal, kept; Avi-Tag, C-terminal, kept
Kind of experiment: ELISA; plates coated with 1 μg/mL MET or SEMA in PBS overnight at 4°C; blocked with PBS, 3% BSA, 20 mM EDTA, 0.05% Tween 20; mAbs from 64 μg/mL in 4-fold dilutions, 1 h room temperature; anti-IgG-HRP, OD650. The note with it: both partners purified.

The target in experiment [2] is T2, SEMA, the ligand-binding domain of MET (Homo sapiens, UniProt P08581).
T2 construct: source: Expi293F, transient transfection, purified from supernatant (Ni-NTA); not shown: His6, C-terminal, kept; Avi-Tag, C-terminal, kept
T2 sequence (P08581 27-515): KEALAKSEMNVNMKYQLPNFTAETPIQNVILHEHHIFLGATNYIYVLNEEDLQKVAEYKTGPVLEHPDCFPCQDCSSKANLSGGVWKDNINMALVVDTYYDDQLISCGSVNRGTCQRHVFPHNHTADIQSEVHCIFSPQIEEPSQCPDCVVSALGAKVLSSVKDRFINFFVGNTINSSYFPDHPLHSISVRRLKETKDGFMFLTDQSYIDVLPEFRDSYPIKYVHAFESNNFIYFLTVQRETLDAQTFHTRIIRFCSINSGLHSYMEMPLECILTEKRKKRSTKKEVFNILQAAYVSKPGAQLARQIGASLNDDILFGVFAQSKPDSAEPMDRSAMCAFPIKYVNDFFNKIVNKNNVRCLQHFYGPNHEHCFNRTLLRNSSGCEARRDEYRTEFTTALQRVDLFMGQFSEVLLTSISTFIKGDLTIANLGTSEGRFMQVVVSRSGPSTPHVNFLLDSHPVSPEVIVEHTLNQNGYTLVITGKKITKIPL
Described as above. The note with it: both partners purified.

T1 sequence (P08581 25-932): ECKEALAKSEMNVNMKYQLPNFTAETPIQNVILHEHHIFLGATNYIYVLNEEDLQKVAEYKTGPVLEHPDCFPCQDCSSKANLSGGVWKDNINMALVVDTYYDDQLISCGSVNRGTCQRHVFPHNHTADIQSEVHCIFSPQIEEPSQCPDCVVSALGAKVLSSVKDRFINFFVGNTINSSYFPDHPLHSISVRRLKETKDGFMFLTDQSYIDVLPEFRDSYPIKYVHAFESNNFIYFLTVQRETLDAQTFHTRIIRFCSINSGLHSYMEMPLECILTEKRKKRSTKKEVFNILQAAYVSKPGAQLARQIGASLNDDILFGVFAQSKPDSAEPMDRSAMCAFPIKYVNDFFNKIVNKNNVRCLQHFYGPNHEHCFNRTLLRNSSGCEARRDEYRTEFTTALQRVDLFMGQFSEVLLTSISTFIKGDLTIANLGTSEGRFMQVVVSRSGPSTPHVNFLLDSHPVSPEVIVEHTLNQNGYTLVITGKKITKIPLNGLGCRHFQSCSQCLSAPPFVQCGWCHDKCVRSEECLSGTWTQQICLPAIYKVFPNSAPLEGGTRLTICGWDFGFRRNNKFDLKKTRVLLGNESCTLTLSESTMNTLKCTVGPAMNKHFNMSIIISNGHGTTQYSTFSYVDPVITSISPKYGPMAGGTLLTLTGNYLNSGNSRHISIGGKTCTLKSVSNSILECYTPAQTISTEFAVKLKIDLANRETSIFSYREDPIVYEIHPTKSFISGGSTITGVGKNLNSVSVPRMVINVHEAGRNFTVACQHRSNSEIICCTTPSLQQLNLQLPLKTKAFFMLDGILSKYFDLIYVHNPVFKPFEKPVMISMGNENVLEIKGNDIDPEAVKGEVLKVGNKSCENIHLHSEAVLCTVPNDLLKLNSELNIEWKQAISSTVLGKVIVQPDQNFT

B1: mAb 69B253 (antibody, V domains shown)
VH: EVQLVESGGALVQPGGSLRLSCAASGFTFSSYGMGWVRQAPGKGLEWVSVIIGSGGSTSYVDSVRGRFTISRDNSRNMVYLQMSSLTVDDTAVYYCAKAACGVGFCYRSHWGQGTRVTVSS
VL: SLSVSPGETVTLSCRASQSVSSNLAWYQHKPGQAPRLLIHDASTRATGIPVRFSGSGSGTDFTLTISSLQSEDFAVYYCQHYYNWPYGFAQGTKLEIK
notes: heavy chain V(D)J region; light chain VJ region; light chain constant region of the Ig expression vector; Cloned from a MET-enriched B cell of a cancer patient; detected with anti-IgG secondary antibody; source: Expi293F, cotransfected heavy and light chain vectors, purified (protein A)
Consider B1, for which the binding result in experiment [1] and in experiment [2] was “binds” each time.

These data come from publication PMC12129041, “Unique characteristics of autoantibodies targeting MET in patients with breast and lung cancer” (JCI Insight, 2025).
